Numbered stars: 1 amine (or outer) side, 2 acyl side, 3 side chain; on linkers, the order of the positions; unused ones are H or OH. Bridge positions count the residues as written; N and C are the ends. Square brackets hold non-standard residues; d marks the D form. Triazole bridges read from a SMILES are 1,4-linked. Side chains are listed from the residue outwards. Peptide text beside a SMILES is read from it. * marks the point of attachment. ξ: configuration not given here. DOTA = O=C(O)CN1CCN(CC(=O)O)CCN(CC(=O)*)CCN(CC(=O)O)CC1; Pteroyl = Nc1nc2ncc(CNc3ccc(C(=O)*)cc3)nc2c(=O)[nH]1; Biotin = O=C1N[C@H]2[C@H](CS[C@H]2CCCCC(=O)*)N1; Butanoyl(4-(4-I-phenyl)) = O=C(CCCc1ccc(I)cc1)*; Butanoyl(4-(4-MePh)) = Cc1ccc(CCCC(=O)*)cc1; dLys(N3) = [N-]=[N+]=NCCCC[C@@H](N)C(=O)O; Lys(N3) = [N-]=[N+]=NCCCC[C@H](N)C(=O)O; γGlu = O=C(O)[C@H](CCC(=O)[*:2])N[*:1]; AEEEA = NCCOCCOCCOCC(=O)O; Pra = C#CC[C@H](N)C(=O)O; ξPra = C#CCC(N)C(=O)O; X2 = NOCC(=O)*
Columns and labels:
[1] = Plasma protein binding (equilibrium dialysis), human; assay type: in vitro ADME
Description: (§1) HTD 96 a/b regenerated cellulose membrane strips with mass cutoff of 12-14 kDa were soaked in ultra-pure water at room temperature for 1 hour. Each swelled membrane was then soaked in 20:80 ethanol:water for 20 minutes.
(§2) Just prior to the experiment, the membranes were re-soaked in ultra-pure water. Plasma was prepared by thawing under cold water. The plasma was centrifuged to remove any clots and pH was adjusted to 7.0-8.0. Test articles and control compounds were diluted to 2 μM. The dialysis device was loaded by transferring 150 μL of the test article (in triplicate) to the donor side. The dialysis device was placed in a humidified incubator at 37° C. with 5% CO2 in a shaking platform that rotated slowly for 4 hours. After incubation, 50 μL of the supernatant was taken from both sides and analyzed by LC-MS/MS.
(§3) To optimize the albumin binding potential of the heterobiligand, a plasma protein binding (PPB) experiment was performed. This experiment measured the amount of test article bound and free after equilibrating with plasma. Compound #6305 (folate-hshta-Lys(MPBA)-Gly-Phe-Lys(DOTA) (SEQ ID NO:6)), which contains the MPBA albumin binder, was 96.26% bound to mouse plasma and 98.34% bound to human plasma. […] In mouse and human plasmas 99.6% and 99.5% was bound, respectively.

[2] = Plasma protein binding (equilibrium dialysis), mouse; assay type: in vitro ADME, CD-1 mouse
Description: as §1, §2, §3

[3] = target: human recombinant NEP (Homo sapiens, UniProt P08473); assay type: biochemical
Sequence of human recombinant NEP (P08473 whole entry): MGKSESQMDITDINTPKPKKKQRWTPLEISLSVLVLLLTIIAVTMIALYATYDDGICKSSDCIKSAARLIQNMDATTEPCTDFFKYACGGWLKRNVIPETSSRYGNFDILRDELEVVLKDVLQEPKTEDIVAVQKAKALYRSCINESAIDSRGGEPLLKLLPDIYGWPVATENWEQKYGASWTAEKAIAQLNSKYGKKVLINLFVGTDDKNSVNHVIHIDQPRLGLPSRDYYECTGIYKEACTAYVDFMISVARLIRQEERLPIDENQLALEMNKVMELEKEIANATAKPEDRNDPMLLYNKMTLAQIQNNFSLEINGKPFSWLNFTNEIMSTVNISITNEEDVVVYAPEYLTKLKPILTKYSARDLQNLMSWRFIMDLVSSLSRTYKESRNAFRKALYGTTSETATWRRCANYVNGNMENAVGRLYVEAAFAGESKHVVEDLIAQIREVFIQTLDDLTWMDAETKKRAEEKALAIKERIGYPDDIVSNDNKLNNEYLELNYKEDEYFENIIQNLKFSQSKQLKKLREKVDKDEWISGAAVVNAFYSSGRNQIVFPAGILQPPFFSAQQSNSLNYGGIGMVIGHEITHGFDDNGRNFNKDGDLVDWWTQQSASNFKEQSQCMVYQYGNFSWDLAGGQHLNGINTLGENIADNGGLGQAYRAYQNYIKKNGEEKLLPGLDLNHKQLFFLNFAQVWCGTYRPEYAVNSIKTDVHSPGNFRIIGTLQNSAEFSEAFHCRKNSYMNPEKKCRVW
Description: In order to test the susceptibility of GFK and MVK linkers to NEP-mediated cleavage, the peptide (Folate-hshta-Lys(MPBA)-Gly-Phe-Lys(DOTA) (SEQ ID NO:6)) was incubated with human recombinant NEP and analyzed the solution for the presence of cleaved adducts. MALDI was utilized to monitor the cleavage of a PCC heterobiligand that contains a NEP protease recognizable sequence (G-F-K). The PCC concentration was constant and the NEP concentration was titrated down from 10 nM to 1 nM, 0.1 nM, 0.01 nM, and no NEP. The NEP-mediated cleaved adduct was identified by mass. 10 μM PCC containing the GFK linker was combined with varying amounts of NEP. […] Below 0.1 nM no cleavage was observed. • Folate-hshta-Lys(MPBA)-Gly-Phe-Lys(DOTA) (SEQ ID NO:6) • Molecular weight 2231.42
The NEP-mediated cleavage was also monitored by HPLC. In agreement with the MALDI spectra, the HPLC chromatograms show depletion of the parent brush-border heterobiligand (retention time 17.1 minutes), dose-dependent on the amount of NEP spiked into the sample (10 nM, 1 nM, 0.1 nM, 0.01 nM, and no NEP). An appearance of a new peak (retention time 16.5 minutes) in concert with the depletion of the starting material is presumed to be the cleaved folate-containing peptide.
In order to test the specificity of NEP, a non-cleavable linker (PEG3) was also assayed.
To reduce the radioactive dose to the kidney, Indi ^177Lu-7327 was constructed to incorporate a GFK linker that is susceptible to cleavage by enzymes found predominately in the kidney's brush border. These enzymes cleave off the radionuclide-chelator complex, which is quickly eliminated by the kidney for excretion in the urine. The zinc metalloprotease neprilysin (NEP) is expressed with high abundance in the kidney. […] To confirm NEP-mediated cleavage of the GFK linker in Indi 7327, the peptide was incubated with recombinant human NEP at 37° C. for 1 h and analyzed by matrix-assisted laser desorption/ionization mass spectrometry (MALDI-MS) for the evolution of cleaved adducts (FIG. 42). […] The expected cleaved adduct (mass: 1283.16 m/z) appears in the samples containing 10, 1.0, and 0.1 nM NEP. […] Below 0.1 nM NEP, no cleavage was observed. In addition to confirming the selectivity of NEP for the GFK linker, it is also important to note that the remaining portions of the Indi 7327 were impervious to the enzyme.

[4] = test system: OVCAR3 FOLR1+ cells; assay: Flow cytometry binding to FOLR1 (+) cells; assay type: cell-based, human; settings: OVCAR3 vs PC-3, flow cytometry
Description: Both the kyeet (SEQ ID NO:9) and hshta (SEQ ID NO:6)-derived biligands were tested by flow cytometry for binding to FOLR1 (+) and FOLR1 (−) cell lines (FIGS. 6 and 7). The human ovarian adenocarcinoma-derived cell line OVCAR3 has robust FOLR1 expression and was selected as the FOLR1 (+) cell line. The human prostate adenocarcinoma-derived cell line PC-3 was selected as a FOLR1 (−) cell line.
Competition at the cellular level was also probed.
Increasing the serum-bound fraction of the peptide may decrease first pass removal of the heterobiligand, and drive compound retention of tumor over kidney. Constructs bearing the known albumin binder 4-methylphenyl butyric acid (4-MPBA) were synthesized. These compounds were evaluated in vitro to verify binding fidelity to FOLR1. The modified heterobiligands were incubated at 400 nM with OVCAR3 and PC-3 cells for 20 minutes at 37° C. in complete media containing 20% FBS. They both bind to OVCAR3 FOLR1+ cells with similar binding affinities as the original heterobiligand studied (FIG. 14). […] Similar activity of these heterobiligands is anticipated in vivo.

Row | SMILES | in vitro Assay Data (NEP assay) [3] | recovery at 4 h, 2 μM ([1]; human) [%] | fraction unbound at 4 h, 2 μM ([1]; human, plasma) | recovery at 4 h, 2 μM ([2]; CD-1, mouse) [%] | fraction unbound at 4 h, 2 μM ([2]; CD-1, mouse, plasma) | selectivity for FOLR1 (+) cells over FOLR1 (−) cells [4] | further results
1 | CSCC[C@H](NC(=O)[C@H](CCCCNC(=O)CCCc1ccc(I)cc1)NC(=O)[C@@H]1CCCCn2cc(nn2)C[C@H](NC(=O)CC[C@H](NC(=O)c2ccc(NCc3cnc4nc(N)[nH]c(=O)c4n3)cc2)C(=O)O)C(=O)N[C@H](Cc2c[nH]cn2)C(=O)N[C@H](CO)C(=O)N[C@H](Cc2c[nH]cn2)C(=O)N[C@H]([C@H](C)O)C(=O)N[C@H](C)C(=O)N1)C(=O)N[C@H](C(=O)N[C@@H](CCCCNC(=O)CN1CCN(CC(=O)O)CCN(CC(=O)O)CCN(CC(=O)O)CC1)C(=O)O)C(C)C [compound #1306, Fol-hshta-Lys(4-IPBA)-Met-Val-Lys(DOTA)] ({Pteroyl-γGlu}-[Pra][dH][dS][dH][dT][dA][Lys(N3)]K(Butanoyl(4-(4-I-phenyl)))MVK(DOTA)-OH; triazole 1-7) | Cleavage of -M-V-K- | – | – | – | – | – | recovery [1]: 84.8%; recovery [2]: 82.7%
2 | C[C@@H]1NC(=O)[C@H]([C@@H](C)O)NC(=O)[C@H](Cc2cnc[nH]2)NC(=O)[C@H](CO)NC(=O)[C@H](Cc2cnc[nH]2)NC(=O)C(NC(=O)CC[C@H](NC(=O)c2ccc(NCc3cnc4nc(N)[nH]c(=O)c4n3)cc2)C(=O)O)Cc2cn(nn2)CCCC[C@H](C(=O)NCCOCCOCCOCC(=O)N[C@H](CCCCNC(=O)CN2CCN(CC(=O)O)CCN(CC(=O)O)CCN(CC(=O)O)CC2)C(N)=O)NC1=O (some centres unmarked) [compound 1189, Fol-hshta-PEG3-Lys(DOTA)] ({Pteroyl-γGlu}-[ξPra]HSHTA[dLys(N3)][AEEEA][dK](DOTA)-NH2; triazole 1-7) | resistant to NEP | 102 | 0.54 | 97.4 | 0.705 | – | –
3 | C[C@@H]1NC(=O)[C@H]([C@@H](C)O)NC(=O)[C@H](Cc2cnc[nH]2)NC(=O)[C@H](CO)NC(=O)[C@H](Cc2cnc[nH]2)NC(=O)C(NC(=O)CC[C@H](NC(=O)c2ccc(NCc3cnc4nc(N)[nH]c(=O)c4n3)cc2)C(=O)O)Cc2cn(nn2)CCCC[C@H](C(=O)NCCOCCOCCOCC(=O)NCC(=O)N[C@H](Cc2ccccc2)C(=O)N[C@H](CCCCNC(=O)CN2CCN(CC(=O)O)CCN(CC(=O)O)CCN(CC(=O)O)CC2)C(=O)O)NC1=O (stereo partly drawn) [compound 6307, Fol-hshta-PEG3-Gly-Phe-Lys(DOTA)] ({Pteroyl-γGlu}-[ξPra]HSHTA[dLys(N3)][AEEEA]G[dF][dK](DOTA)-OH; triazole 1-7) | Cleavage of -G-F-K- | 81.6 | 0.587 | 68.9 | 0.594 | – | –
4 | Cc1ccc(CCCC(=O)NCCCC[C@@H](NC(=O)[C@H]2CCCCn3cc(nn3)CC(NC(=O)CC[C@H](NC(=O)c3ccc(NCc4cnc5nc(N)[nH]c(=O)c5n4)cc3)C(=O)O)C(=O)N[C@@H](Cc3cnc[nH]3)C(=O)N[C@@H](CO)C(=O)N[C@@H](Cc3cnc[nH]3)C(=O)N[C@@H]([C@@H](C)O)C(=O)N[C@@H](C)C(=O)N2)C(=O)NCC(=O)N[C@H](Cc2ccccc2)C(=O)N[C@H](CCCCNC(=O)COCCOCCOCCNC(=O)CN2CCN(CC(=O)O)CCN(CC(=O)O)CCN(CC(=O)O)CC2)C(=O)O)cc1 (stereo partly drawn) [compound 3302, Fol-hshta-Lys(4-MPBA)-Gly-Phe-Lys(PEG3-DOTA)] ({Pteroyl-γGlu}-[ξPra]HSHTA[dLys(N3)][dK](Butanoyl(4-(4-MePh)))G[dF][dK]([AEEEA-DOTA])-OH; triazole 1-7) | Cleavage of -G-F-K- | 88.1 | 0.051 | 103 | 0.035 | – | –
5 | C[C@H](O)[C@H]1NC(=O)[C@@H](CCC(=O)O)NC(=O)[C@@H](CCC(=O)O)NC(=O)[C@@H](Cc2ccc(O)cc2)NC(=O)[C@@H](CCCCN)NC(=O)[C@@H](NC(=O)COCCOCCOCCNC(=O)CCCC[C@@H]2SC[C@@H]3NC(=O)N[C@@H]32)Cc2cn(nn2)CCCC[C@@H](C(N)=O)NC1=O [kyeet] ({Biotin-AEEEA}-[Pra][dK][dY][dE][dE][dT][Lys(N3)]-NH2; triazole 1-7) | – | – | – | – | – | slight binding selectivity for FOLR1 (+) cells | –
6 | C[C@H](O)[C@H]1NC(=O)[C@@H](Cc2ccc(O)cc2)NC(=O)[C@@H](CCCNC(=N)N)NC(=O)[C@@H](CCC(=O)O)NC(=O)[C@@H](CC(=O)O)NC(=O)[C@@H](NC(=O)[C@H](Cc2cn(CCOCCOCCOCCNC(=O)CC[C@H](NC(=O)c3ccc(NCc4cnc5nc(N)[nH]c(=O)c5n4)cc3)C(=O)O)nn2)NC(=O)CCOCCOCCOCCOCCOCCOCCOCCOCCOCCOCCNC(=O)CCOCCOCCOCCOCCOCCOCCOCCOCCOCCOCCNC(=O)CCCC[C@@H]2SC[C@@H]3NC(=O)N[C@@H]32)Cc2cn(nn2)CCCC[C@@H](C(N)=O)NC1=O [Folate-deryt] | – | – | – | – | – | excellent selectivity for FOLR1 (+) cells | –
7 | C[C@@H](O)[C@@H]1NC(=O)[C@H](CCCCN)NC(=O)[C@@H](Cc2c[nH]c3ccccc23)NC(=O)[C@H](Cc2ccccc2)NC(=O)[C@@H](NC(=O)[C@H](N)Cc2ccccc2)CSSC[C@@H](C(=O)N[C@H](CO)[C@@H](C)O)NC1=O [Octreotide Acetate, reference compound] | – | – | – | – | – | – | recovery at 4 h, 2 μM ([1]; Hu (human plasma), recovery in plasma protein binding assay, read-out: (% Recovery)): 84.3%; fraction unbound at 4 h, 2 μM ([1]; Hu (human plasma), read-out: Plasma % Bound): 0.406; recovery at 4 h, 2 μM ([2]; Mu (CD-1 mouse plasma), recovery in plasma protein binding assay, read-out: (% Recovery)): 84.5%; fraction unbound at 4 h, 2 μM ([2]; Mu (CD-1 mouse plasma), read-out: Plasma % Bound): 0.376
8 | Cc1ccc(CCCC(=O)NCCCC[C@H](NC(=O)[C@@H]2CCCCn3cc(nn3)C[C@H](NC(=O)CC[C@H](NC(=O)c3ccc(NCc4cnc5nc(N)[nH]c(=O)c5n4)cc3)C(=O)O)C(=O)N[C@H](Cc3cnc[nH]3)C(=O)N[C@H](CO)C(=O)N[C@H](Cc3cnc[nH]3)C(=O)N[C@H]([C@H](C)O)C(=O)N[C@H](C)C(=O)N2)C(=O)NCC(=O)N[C@@H](Cc2ccccc2)C(=O)N[C@@H](CCCCNC(=O)CON)C(=O)O)cc1 [compound 3304, Fol-hshta-Lys(4-MPBA)-Gly-Phe-Lys(AO)] ({Pteroyl-γGlu}-[Pra][dH][dS][dH][dT][dA][Lys(N3)]K(Butanoyl(4-(4-MePh)))GFK(X2)-OH; triazole 1-7) | Cleavage of -G-F-K- | – | – | – | – | – | –
9 | C[C@H](O)[C@H]1NC(=O)[C@@H](Cc2c[nH]cn2)NC(=O)[C@@H](CO)NC(=O)[C@@H](Cc2c[nH]cn2)NC(=O)[C@@H](NC(=O)[C@H](Cc2cn(CCOCCOCCOCCNC(=O)CC[C@H](NC(=O)c3ccc(NCc4cnc5nc(N)[nH]c(=O)c5n4)cc3)C(=O)O)nn2)NC(=O)CCOCCOCCOCCOCCOCCOCCOCCOCCOCCOCCNC(=O)CCOCCOCCOCCOCCOCCOCCOCCOCCOCCOCCNC(=O)CCCC[C@@H]2SC[C@@H]3NC(=O)N[C@@H]32)Cc2cn(nn2)CCCC[C@@H](C(N)=O)NC(=O)[C@@H](C)NC1=O [Tz heterobiligand] | – | – | – | – | – | high selectivity for FOLR1 (+) cells | –
